The test has as its target mouse mammary tumor virus (MMTV) integrase (IN) (mouse mammary tumor virus (MMTV)). Briefly: cryo-EM structure; octameric MMTV STC intasome: IN assembled on branched DNA, purified on Superdex 200 in 25 mM Tris-HCl pH 7.4, 200 mM NaCl, 2 mM DTT, 25 uM ZnCl2, 10 mM CaCl2; C2 symmetry, 3.5 Å global resolution.

This note sets out measurements from PMC9410886.

As for “mouse mammary tumor virus (MMTV) integrase (IN) (enzyme)”, the stoichiometry N (as a rule, a count of units in the complex or per binding partner) was determined as 8.
